Test results published in publication PMC9344649, “Involvement of MdWRKY40 in the defense of mycorrhizal apple against fusarium solani”.

B1: proMdGLU W-box 2 probe (dsDNA)
DNA 1: ATCACAAATAAAATTGATATTTGACCAACTACATGCCACGATCACA
DNA 2: TGTGATCGTGGCATGTAGTTGGTCAAATATCAATTTTATTTGTGAT
B2: proMdGLU W-box 3 probe (dsDNA)
DNA 1: CTTTCCCCCCTATAAATACTTTGACCACCAACTCCCCAATCCTCCA
DNA 2: TGGAGGATTGGGGAGTTGGTGGTCAAAGTATTTATAGGGGGGAAAG

Columns and labels:
MdWRKY40 [1] = molecular target: T1, MdWRKY40 (Malus domestica, UniProt A0A7S5ATZ6 1-302); assay: EMSA; cold probe weakens binding; EMSA: binding buffer not specified, 24 °C, 30 min; salt and pH not stated; conditions: protein: recombinant; tags: His tag, pET-32a(+) fusion; blunt
T1 sequence (A0A7S5ATZ6 entry or part of it): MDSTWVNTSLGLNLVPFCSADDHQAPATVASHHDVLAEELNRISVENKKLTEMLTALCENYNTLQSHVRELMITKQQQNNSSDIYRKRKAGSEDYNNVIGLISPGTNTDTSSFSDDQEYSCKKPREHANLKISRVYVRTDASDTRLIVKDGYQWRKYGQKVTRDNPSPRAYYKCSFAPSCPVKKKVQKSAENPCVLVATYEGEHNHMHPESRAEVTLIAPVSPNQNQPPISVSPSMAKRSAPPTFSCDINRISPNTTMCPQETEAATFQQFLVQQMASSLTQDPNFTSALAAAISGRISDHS

MdWRKY40 [2] = molecular target: T1, MdWRKY40; assay: EMSA; text says not bound; the only printed mutant is of W-box 3, so numbering of 2 and 3 is uncertain; EMSA: binding buffer not specified, 24 °C, 30 min; salt and pH not stated; conditions: protein: recombinant; tags: His tag, pET-32a(+) fusion; blunt

| Binder | binding result (MdWRKY40 [1]) | binding result (MdWRKY40 [2]) |
| --- | --- | --- |
| B1 | binds |  |
| B2 |  | no binding |
